From patent US20220306739A1 come the findings set out here.

This test concerns the target T cell receptor gamma variable 9 (TRGV9) on human γδ T cells (human) (UniProt Q99603). The experiment in a line: γδ T-cell binding (γδ-enriched T cells), readout 'Signal'.

B1: VG9B2, chimera human IgG1 mAb (silent Fc) of mouse anti-human TCR Vγ9 clone B3 (antibody, V domains shown)
VH: QGQMQQSGAELVKPGASVKLSCKTSGFTFSSNYISWLKQKPGQSLEWIAWIHGGTGGIGYNQKFTGKAQLTVDTSSTTAYMQFSSLTTEDSAIYYCARRGYGAWFAYWGQGTLVTVSA
VL: DIQMTQSPASLSASVGETVTITCRASENIHNYLAWYQQKQGKSPQLLVYNAKTLADGVPSRFSGSGSGTQYSLKINSLQPEDFGNYYCQHFWSYPLTFGAGTKLELK
Regarding B1, the EC50 was 0.56 nM.

What is called EC50 is the concentration needed to bring the measured effect to its halfway point. A high value points to a less potent agent.
